Reference: IntAct's records for PubMed 16712842

B1: UV excision repair protein RAD23 homolog B (Homo sapiens), P54727 (parent)
chain: MQVTLKTLQQQTFKIDIDPEETVKALKEKIESEKGKDAFPVAGQKLIYAGKILNDDTALKEYKIDEKNFVVVMVTKPKAVSTPAPATTQQSAPASTTAVTSSTTTTVAQAPTPVPALAPTSTPASITPASATASSEPAPASAAKQEKPAEKPAETPVATSPTATDSTSGDSSRSNLFEDATSALVTGQSYENMVTEIMSMGYEREQVIAALRASFNNPDRAVEYLLMGIPGDRESQAVVDPPQAASTGAPQSSAVAAAAATTTATTTTTSSGGHPLEFLRNQPQFQQMRQIIQQNPSLLPALLQQIGRENPQLLQQISQHQEHFIQMLNEPVQEAGGQGGGGGGGSGGIAEAGSGHMNYIQVTPQEKEAIERLKALGFPEGLVIQAYFACEKNENLAANFLLQQNFDED

Variants of: B1
Details: with ef1a1_human EEF1A1, P68104
ef1a1_human EEF1A1, P68104, sequence (P68104 whole entry): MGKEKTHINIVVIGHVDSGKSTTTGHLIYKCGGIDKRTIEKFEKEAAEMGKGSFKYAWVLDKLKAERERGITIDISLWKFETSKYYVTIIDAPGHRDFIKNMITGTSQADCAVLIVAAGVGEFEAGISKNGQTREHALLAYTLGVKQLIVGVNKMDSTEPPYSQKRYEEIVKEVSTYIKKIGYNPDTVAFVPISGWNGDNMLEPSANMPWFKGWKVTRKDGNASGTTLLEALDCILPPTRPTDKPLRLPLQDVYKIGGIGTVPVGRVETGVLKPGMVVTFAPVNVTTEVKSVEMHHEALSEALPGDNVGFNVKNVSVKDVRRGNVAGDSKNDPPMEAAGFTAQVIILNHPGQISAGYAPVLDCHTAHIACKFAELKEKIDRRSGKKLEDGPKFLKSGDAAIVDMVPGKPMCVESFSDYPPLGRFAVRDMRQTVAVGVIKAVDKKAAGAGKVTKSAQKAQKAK

Which “effect of a mutation on the interaction” value does the source give for K6A here?
Its value is “disrupting interaction”.

Variants of: B1
Details: with uba3_human UBA3, Q8TBC4
uba3_human UBA3, Q8TBC4, sequence (Q8TBC4 whole entry): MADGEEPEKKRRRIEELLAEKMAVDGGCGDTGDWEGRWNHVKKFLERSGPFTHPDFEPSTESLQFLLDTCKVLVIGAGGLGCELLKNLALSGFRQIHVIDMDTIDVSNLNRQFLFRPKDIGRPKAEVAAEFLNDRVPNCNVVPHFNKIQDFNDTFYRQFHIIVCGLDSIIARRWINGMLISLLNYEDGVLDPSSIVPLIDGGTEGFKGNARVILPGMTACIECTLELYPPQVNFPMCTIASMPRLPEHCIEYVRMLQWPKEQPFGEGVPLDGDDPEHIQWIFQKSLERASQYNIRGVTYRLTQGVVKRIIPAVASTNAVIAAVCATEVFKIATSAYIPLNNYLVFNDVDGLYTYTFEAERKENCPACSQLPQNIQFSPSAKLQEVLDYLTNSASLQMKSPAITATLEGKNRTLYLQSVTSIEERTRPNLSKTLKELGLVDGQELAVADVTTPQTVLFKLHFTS

K6A was tested. Which “effect of a mutation on the interaction” value did it give?
Its value is “increasing interaction”.
